Measured values taken from patent US20180171001A1.

What was measured:
Assay in all cases: cell-based or functional assay
[1] = target: Env of HIV-1 strain 3365.v2.c20 (HIV-1)
[2] = target: Env of HIV-1 strain 231965.c1 (HIV-1)
[3] = target: Env of HIV-1 strain R1166.c1 (HIV-1)
[4] = target: Env of HIV-1 strain 251-18 (HIV-1)
[5] = target: Env of HIV-1 strain PVO.4 (HIV-1)
[6] = target: Env of HIV-1 strain REJO4541.67 (HIV-1)
[7] = target: Env of HIV-1 strain 3016.v5.c45 (HIV-1)
[8] = target: Env of HIV-1 strain 3415.v1.c1 (HIV-1)
[9] = target: Env of HIV-1 strain ZM53M.PB12 (HIV-1)
[10] = target: Env of HIV-1 strain H086.8 (HIV-1)
Tier 2 15 virus panel = target: Tier 2 15 virus panel
[11] = target: Env of HIV-1 strain 250-4 (HIV-1)
[12] = target: Env of HIV-1 strain ZM109F.PB4 (HIV-1)
[13] = target: Env of HIV-1 strain YU2.DG (HIV-1)
[14] = target: Env of HIV-1 strain X1254_c3 (HIV-1)
[15] = target: Env of HIV-1 strain Du172.17 (HIV-1)
Env of MuLV = target: Env of MuLV

B1: γ52κ5 (antibody, V domains shown)
VH: QIHLVQSGTEVKKPGSSVTVSCKAYGVNTFGLYAVNWVRQAPGQSLEYIGQIWRWKSSASHHFRGRVLISAVDLTGSSPPISSLEIKNLTSDDTAVYFCTTTSTYDRWSGLHHDGVMAFSSWGQGTLISVSA
VL: DIQMTQSPSTLSASTGDTVRISCRASQSITGNWVAWYQQRPGKAPRLLIYRGAALLGGVPSRFRGSAAGTDFTLTIGNLQAEDFGTFYCQQYDTYPGTFGQGTKVEVKR
neutralization IC50 [1]: > 15 µg/mL | neutralization IC50 [2]: 0.094 µg/mL | neutralization IC50 [3]: 0.319 µg/mL | neutralization IC50 [4]: 0.048 µg/mL | neutralization IC50 [5]: 0.019 µg/mL | neutralization IC50 [6]: 0.035 µg/mL | neutralization IC50 [7]: 0.017 µg/mL | neutralization IC50 [8]: 0.12 µg/mL | neutralization IC50 [9]: 3.13 µg/mL | neutralization IC50 [10]: 0.175 µg/mL | mean neutralization IC50 (Tier 2 15 virus panel): 0.45 µg/mL | potency against 8ANC195 (Tier 2 15 virus panel): 5 fold | neutralization IC50 [11]: > 15 µg/mL | neutralization IC50 [12]: > 15 µg/mL | neutralization IC50 [13]: 0.065 µg/mL | neutralization IC50 [14]: 0.504 µg/mL

B2: γ59κ61 (antibody, V domains shown)
VH: QIHLVQSGTEVKKPGSSVTVSCKAYGVNTFGLYAVNWVRQAPGQGLEYIGQIWRWKSSASHHFRGRVLISAVDLTGSSPPISSLEIKNVTSDDTAVYFCTTTSTYDEWSDLHHDGVMAFSSWGQGTLISVSA
VL: DIQMTQSPSTLSASIGDTVRISCRASQSITGNWVAWYHQRPGKAPRLLIYRGAALLGGVPSRFSGSAAGTDFTLTIGNLQAEDFGTFYCQQYDTYPGTFGQGTKVEVKR
neutralization IC50 [15]: > 15 µg/mL | neutralization IC50 [1]: > 15 µg/mL | neutralization IC50 [2]: > 15 µg/mL | neutralization IC50 [3]: 7.46 µg/mL | neutralization IC50 [4]: 1.4 µg/mL | neutralization IC50 [5]: > 15 µg/mL | neutralization IC50 [6]: 1.33 µg/mL | neutralization IC50 (Env of MuLV): > 15 µg/mL | neutralization IC50 [7]: > 15 µg/mL | neutralization IC50 [8]: > 15 µg/mL | neutralization IC50 [9]: 13.3 µg/mL | neutralization IC50 [10]: > 15 µg/mL | neutralization IC50 [11]: > 15 µg/mL | neutralization IC50 [12]: > 15 µg/mL | neutralization IC50 [13]: 4.33 µg/mL | neutralization IC50 [14]: 4.01 µg/mL

B3: 8ANC195 IgG (antibody, V domains shown)
VH: QIHLVQSGTEVKKPGSSVTVSCKAYGVNTFGLYAVNWVRQAPGQSLEYIGQIWRWKSSASHHFRGRVLISAVDLTGSSPPISSLEIKNLTSDDTAVYFCTTTSTYDKWSGLHHDGVMAFSSWGQGTLISVSA
VL: DIQMTQSPSTLSASIGDTVRISCRASQSITGNWVAWYQQRPGKAPRLLIYRGAALLGGVPSRFSGSAAGTDFTLTIGNLQAEDFGTFYCQQYDTYPGTFGQGTKVEV
neutralization IC50 [15]: 10.8 µg/mL | neutralization IC50 [1]: > 30 µg/mL | neutralization IC50 [2]: 0.514 µg/mL | neutralization IC50 [3]: 0.986 µg/mL | neutralization IC50 [4]: 0.284 µg/mL | neutralization IC50 [5]: 0.52 µg/mL | neutralization IC50 [6]: 0.08 µg/mL | neutralization IC50 (Env of MuLV): > 23 µg/mL | neutralization IC50 [7]: 0.195 µg/mL | neutralization IC50 [8]: 2.4 µg/mL | neutralization IC50 [9]: 9.63 µg/mL | neutralization IC50 [10]: 0.095 µg/mL | mean neutralization IC50 (Tier 2 15 virus panel): 2.3 µg/mL | neutralization IC50 [11]: > 50 µg/mL | neutralization IC50 [12]: > 30 µg/mL | neutralization IC50 [13]: 0.79 µg/mL | neutralization IC50 [14]: 1.52 µg/mL
